Results from patent US20140087995A1 (published 2014).
Numbered stars: 1 amine (or outer) side, 2 acyl side, 3 side chain; on linkers, the order of the positions; unused ones are H or OH. Bridge positions count the residues as written; N and C are the ends. * marks the point of attachment. C20 diacid = O=C(O)CCCCCCCCCCCCCCCCCCC(=O)*; γGlu = O=C(O)[C@H](CCC(=O)[*:2])N[*:1]

T1: human calcitonin receptor (human, UniProt P30988 25-474)
T1 sequence (looked up): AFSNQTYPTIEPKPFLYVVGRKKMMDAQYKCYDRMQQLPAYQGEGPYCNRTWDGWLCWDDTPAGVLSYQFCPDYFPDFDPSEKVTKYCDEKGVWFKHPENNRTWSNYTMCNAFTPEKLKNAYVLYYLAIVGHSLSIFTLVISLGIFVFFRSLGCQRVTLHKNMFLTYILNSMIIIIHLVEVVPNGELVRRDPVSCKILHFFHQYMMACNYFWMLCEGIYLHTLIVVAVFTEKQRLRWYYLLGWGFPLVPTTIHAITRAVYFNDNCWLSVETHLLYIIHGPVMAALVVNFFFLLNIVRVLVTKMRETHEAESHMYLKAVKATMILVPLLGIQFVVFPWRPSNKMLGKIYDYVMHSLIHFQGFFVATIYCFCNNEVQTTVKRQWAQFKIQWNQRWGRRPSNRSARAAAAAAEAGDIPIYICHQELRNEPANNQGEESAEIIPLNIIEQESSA

T2: human amylin receptor (amylin 3(a) receptor: human calcitonin receptor with RAMP-3) (human, UniProt P30988 25-474; O60896 24-148)
T2 sequence (looked up) 1: T1 sequence (looked up)
T2 sequence (looked up) 2: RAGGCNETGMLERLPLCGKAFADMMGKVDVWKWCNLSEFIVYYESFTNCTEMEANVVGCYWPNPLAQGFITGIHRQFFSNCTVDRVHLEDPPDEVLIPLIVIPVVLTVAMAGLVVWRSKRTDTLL

B1: N^α1-[(4S)-4-carboxy-4-(19-carboxynonadecanoylamino)butanoyl]-[Glu14,Arg17,Pro21,Pro27,His34]-h-amylin (peptide)
peptide: {C20 diacid-γGlu}-KCNTATCATQRLAEFLRHSSPNFGAIPSSTNVGHNTY-NH2
modifications: disulfide 2-7
SMILES: CC[C@H](C)[C@H](NC(=O)[C@H](C)NC(=O)CNC(=O)[C@H](Cc1ccccc1)NC(=O)[C@H](CC(N)=O)NC(=O)[C@@H]1CCCN1C(=O)[C@H](CO)NC(=O)[C@H](CO)NC(=O)[C@H](Cc1c[nH]cn1)NC(=O)[C@H](CCCNC(=N)N)NC(=O)[C@H](CC(C)C)NC(=O)[C@H](Cc1ccccc1)NC(=O)[C@H](CCC(=O)O)NC(=O)[C@H](C)NC(=O)[C@H](CC(C)C)NC(=O)[C@H](CCCNC(=N)N)NC(=O)[C@H](CCC(N)=O)NC(=O)[C@@H](NC(=O)[C@H](C)NC(=O)[C@@H]1CSSC[C@H](NC(=O)[C@H](CCCCN)NC(=O)CC[C@H](NC(=O)CCCCCCCCCCCCCCCCCCC(=O)O)C(=O)O)C(=O)N[C@@H](CC(N)=O)C(=O)N[C@@H]([C@@H](C)O)C(=O)N[C@@H](C)C(=O)N[C@@H]([C@@H](C)O)C(=O)N1)[C@@H](C)O)C(=O)N1CCC[C@H]1C(=O)N[C@@H](CO)C(=O)N[C@@H](CO)C(=O)N[C@H](C(=O)N[C@@H](CC(N)=O)C(=O)N[C@H](C(=O)NCC(=O)N[C@@H](Cc1c[nH]cn1)C(=O)N[C@@H](CC(N)=O)C(=O)N[C@H](C(=O)N[C@@H](Cc1ccc(O)cc1)C(N)=O)[C@@H](C)O)C(C)C)[C@@H](C)O
notes: also called compound 17
B2: N^α1-[(4S)-4-carboxy-4-(19-carboxynonadecanoylamino)butanoyl]-[Glu14,Arg17,Pro21,Pro27,Pro31]-h-amylin (peptide)
peptide: {C20 diacid-γGlu}-KCNTATCATQRLAEFLRHSSPNFGAIPSSTPVGSNTY-NH2
modifications: disulfide 2-7
SMILES: CC[C@H](C)[C@H](NC(=O)[C@H](C)NC(=O)CNC(=O)[C@H](Cc1ccccc1)NC(=O)[C@H](CC(N)=O)NC(=O)[C@@H]1CCCN1C(=O)[C@H](CO)NC(=O)[C@H](CO)NC(=O)[C@H](Cc1c[nH]cn1)NC(=O)[C@H](CCCNC(=N)N)NC(=O)[C@H](CC(C)C)NC(=O)[C@H](Cc1ccccc1)NC(=O)[C@H](CCC(=O)O)NC(=O)[C@H](C)NC(=O)[C@H](CC(C)C)NC(=O)[C@H](CCCNC(=N)N)NC(=O)[C@H](CCC(N)=O)NC(=O)[C@@H](NC(=O)[C@H](C)NC(=O)[C@@H]1CSSC[C@H](NC(=O)[C@H](CCCCN)NC(=O)CC[C@H](NC(=O)CCCCCCCCCCCCCCCCCCC(=O)O)C(=O)O)C(=O)N[C@@H](CC(N)=O)C(=O)N[C@@H]([C@@H](C)O)C(=O)N[C@@H](C)C(=O)N[C@@H]([C@@H](C)O)C(=O)N1)[C@@H](C)O)C(=O)N1CCC[C@H]1C(=O)N[C@@H](CO)C(=O)N[C@@H](CO)C(=O)N[C@H](C(=O)N1CCC[C@H]1C(=O)N[C@H](C(=O)NCC(=O)N[C@@H](CO)C(=O)N[C@@H](CC(N)=O)C(=O)N[C@H](C(=O)N[C@@H](Cc1ccc(O)cc1)C(N)=O)[C@@H](C)O)C(C)C)[C@@H](C)O
notes: also called compound 31
B3: N^α1-[(4S)-4-carboxy-4-(19-carboxynonadecanoylamino)butanoyl]-[Glu14,Arg17,Pro21,Pro27,His35]-h-amylin (peptide)
peptide: {C20 diacid-γGlu}-KCNTATCATQRLAEFLRHSSPNFGAIPSSTNVGSHTY-NH2
modifications: disulfide 2-7
SMILES: CC[C@H](C)[C@H](NC(=O)[C@H](C)NC(=O)CNC(=O)[C@H](Cc1ccccc1)NC(=O)[C@H](CC(N)=O)NC(=O)[C@@H]1CCCN1C(=O)[C@H](CO)NC(=O)[C@H](CO)NC(=O)[C@H](Cc1c[nH]cn1)NC(=O)[C@H](CCCNC(=N)N)NC(=O)[C@H](CC(C)C)NC(=O)[C@H](Cc1ccccc1)NC(=O)[C@H](CCC(=O)O)NC(=O)[C@H](C)NC(=O)[C@H](CC(C)C)NC(=O)[C@H](CCCNC(=N)N)NC(=O)[C@H](CCC(N)=O)NC(=O)[C@@H](NC(=O)[C@H](C)NC(=O)[C@@H]1CSSC[C@H](NC(=O)[C@H](CCCCN)NC(=O)CC[C@H](NC(=O)CCCCCCCCCCCCCCCCCCC(=O)O)C(=O)O)C(=O)N[C@@H](CC(N)=O)C(=O)N[C@@H]([C@@H](C)O)C(=O)N[C@@H](C)C(=O)N[C@@H]([C@@H](C)O)C(=O)N1)[C@@H](C)O)C(=O)N1CCC[C@H]1C(=O)N[C@@H](CO)C(=O)N[C@@H](CO)C(=O)N[C@H](C(=O)N[C@@H](CC(N)=O)C(=O)N[C@H](C(=O)NCC(=O)N[C@@H](CO)C(=O)N[C@@H](Cc1c[nH]cn1)C(=O)N[C@H](C(=O)N[C@@H](Cc1ccc(O)cc1)C(N)=O)[C@@H](C)O)C(C)C)[C@@H](C)O
notes: also called compound 18
B4: N^α1-[(4S)-4-carboxy-4-(19-carboxynonadecanoylamino)butanoyl]-[Glu14,Arg17,Pro21,Pro27,Pro37]-h-amylin (peptide)
peptide: {C20 diacid-γGlu}-KCNTATCATQRLAEFLRHSSPNFGAIPSSTNVGSNTP-NH2
modifications: disulfide 2-7
SMILES: CC[C@H](C)[C@H](NC(=O)[C@H](C)NC(=O)CNC(=O)[C@H](Cc1ccccc1)NC(=O)[C@H](CC(N)=O)NC(=O)[C@@H]1CCCN1C(=O)[C@H](CO)NC(=O)[C@H](CO)NC(=O)[C@H](Cc1c[nH]cn1)NC(=O)[C@H](CCCNC(=N)N)NC(=O)[C@H](CC(C)C)NC(=O)[C@H](Cc1ccccc1)NC(=O)[C@H](CCC(=O)O)NC(=O)[C@H](C)NC(=O)[C@H](CC(C)C)NC(=O)[C@H](CCCNC(=N)N)NC(=O)[C@H](CCC(N)=O)NC(=O)[C@@H](NC(=O)[C@H](C)NC(=O)[C@@H]1CSSC[C@H](NC(=O)[C@H](CCCCN)NC(=O)CC[C@H](NC(=O)CCCCCCCCCCCCCCCCCCC(=O)O)C(=O)O)C(=O)N[C@@H](CC(N)=O)C(=O)N[C@@H]([C@@H](C)O)C(=O)N[C@@H](C)C(=O)N[C@@H]([C@@H](C)O)C(=O)N1)[C@@H](C)O)C(=O)N1CCC[C@H]1C(=O)N[C@@H](CO)C(=O)N[C@@H](CO)C(=O)N[C@H](C(=O)N[C@@H](CC(N)=O)C(=O)N[C@H](C(=O)NCC(=O)N[C@@H](CO)C(=O)N[C@@H](CC(N)=O)C(=O)N[C@H](C(=O)N1CCC[C@H]1C(N)=O)[C@@H](C)O)C(C)C)[C@@H](C)O
notes: also called compound 8
B5: N^α1-[(4S)-4-carboxy-4-(19-carboxynonadecanoylamino)butanoyl]-[Glu14,Arg17,Pro21,Pro27,Pro29]-h-amylin (peptide)
peptide: {C20 diacid-γGlu}-KCNTATCATQRLAEFLRHSSPNFGAIPSPTNVGSNTY-NH2
modifications: disulfide 2-7
SMILES: CC[C@H](C)[C@H](NC(=O)[C@H](C)NC(=O)CNC(=O)[C@H](Cc1ccccc1)NC(=O)[C@H](CC(N)=O)NC(=O)[C@@H]1CCCN1C(=O)[C@H](CO)NC(=O)[C@H](CO)NC(=O)[C@H](Cc1c[nH]cn1)NC(=O)[C@H](CCCNC(=N)N)NC(=O)[C@H](CC(C)C)NC(=O)[C@H](Cc1ccccc1)NC(=O)[C@H](CCC(=O)O)NC(=O)[C@H](C)NC(=O)[C@H](CC(C)C)NC(=O)[C@H](CCCNC(=N)N)NC(=O)[C@H](CCC(N)=O)NC(=O)[C@@H](NC(=O)[C@H](C)NC(=O)[C@@H]1CSSC[C@H](NC(=O)[C@H](CCCCN)NC(=O)CC[C@H](NC(=O)CCCCCCCCCCCCCCCCCCC(=O)O)C(=O)O)C(=O)N[C@@H](CC(N)=O)C(=O)N[C@@H]([C@@H](C)O)C(=O)N[C@@H](C)C(=O)N[C@@H]([C@@H](C)O)C(=O)N1)[C@@H](C)O)C(=O)N1CCC[C@H]1C(=O)N[C@@H](CO)C(=O)N1CCC[C@H]1C(=O)N[C@H](C(=O)N[C@@H](CC(N)=O)C(=O)N[C@H](C(=O)NCC(=O)N[C@@H](CO)C(=O)N[C@@H](CC(N)=O)C(=O)N[C@H](C(=O)N[C@@H](Cc1ccc(O)cc1)C(N)=O)[C@@H](C)O)C(C)C)[C@@H](C)O
notes: also called compound 37
B6: N^α1-[(4S)-4-carboxy-4-(19-carboxynonadecanoylamino)butanoyl]-[Glu14,Arg17,Pro21,Pro27,Pro34]-h-amylin (peptide)
peptide: {C20 diacid-γGlu}-KCNTATCATQRLAEFLRHSSPNFGAIPSSTNVGPNTY-NH2
modifications: disulfide 2-7
SMILES: CC[C@H](C)[C@H](NC(=O)[C@H](C)NC(=O)CNC(=O)[C@H](Cc1ccccc1)NC(=O)[C@H](CC(N)=O)NC(=O)[C@@H]1CCCN1C(=O)[C@H](CO)NC(=O)[C@H](CO)NC(=O)[C@H](Cc1c[nH]cn1)NC(=O)[C@H](CCCNC(=N)N)NC(=O)[C@H](CC(C)C)NC(=O)[C@H](Cc1ccccc1)NC(=O)[C@H](CCC(=O)O)NC(=O)[C@H](C)NC(=O)[C@H](CC(C)C)NC(=O)[C@H](CCCNC(=N)N)NC(=O)[C@H](CCC(N)=O)NC(=O)[C@@H](NC(=O)[C@H](C)NC(=O)[C@@H]1CSSC[C@H](NC(=O)[C@H](CCCCN)NC(=O)CC[C@H](NC(=O)CCCCCCCCCCCCCCCCCCC(=O)O)C(=O)O)C(=O)N[C@@H](CC(N)=O)C(=O)N[C@@H]([C@@H](C)O)C(=O)N[C@@H](C)C(=O)N[C@@H]([C@@H](C)O)C(=O)N1)[C@@H](C)O)C(=O)N1CCC[C@H]1C(=O)N[C@@H](CO)C(=O)N[C@@H](CO)C(=O)N[C@H](C(=O)N[C@@H](CC(N)=O)C(=O)N[C@H](C(=O)NCC(=O)N1CCC[C@H]1C(=O)N[C@@H](CC(N)=O)C(=O)N[C@H](C(=O)N[C@@H](Cc1ccc(O)cc1)C(N)=O)[C@@H](C)O)C(C)C)[C@@H](C)O
notes: also called compound 32

Each binder was assayed against T1, human calcitonin receptor (assay: cell-based or functional assay).

| Binder | Ratio hCT/hAmylin funct. | hCTR funct. EC50 [nM] |
| --- | --- | --- |
| B1 | 8.8 | – |
| B2 | 6.4 | 0.717 |
| B3 | 4.8 | 0.742 |
| B4 | 1.1 | 0.087 |
| B5 | 4 | 0.372 |
| B6 | 6.6 | 0.327 |

What follows are binders tested against T2, human amylin receptor (amylin 3(a) …) (assay: cell-based or functional assay).

| Binder | hAmylin-R funct. EC50 [nM] |
| --- | --- |
| B1 | 0.268 |
| B2 | 0.112 |
| B3 | 0.154 |
| B4 | 0.082 |
| B5 | 0.092 |
| B6 | 0.05 |
